Measured values from paper PMC4745738.

Biological target: TRAIL-R

- inhibition of specific lysis of Nalm6 cells by pDC-activated NK cells (5:1 E:T ratio) with a blocking anti-TRAIL antibody: 50%
- inhibition of specific lysis of REH cells by pDC-activated NK cells (5:1 E:T ratio) with a blocking anti-TRAIL antibody: 66%
Substance: TNF-related apoptosis-inducing ligand (TRAIL) (from UniProt P50591 1-281)
